Assay results taken from the Human Domainome abundance scans (Beltran et al. 2025).

B1: Activity-dependent neuroprotector homeobox protein, residues 770 to 810; numbered along this chain, Q9H2P0 (parent)
chain: FLTKYFNKQPYPTRREIEKLAASLWLWKSDIASHFSNKRKK
B2: POU domain, class 6, transcription factor 2, residues 609 to 663; numbered along this chain, P78424 (parent)
chain: KRRTSFTPQALEILNAHFEKNTHPSGQEMTEIAEKLNYDREVVRVWFCNKRQALK

Variants of: B1
Test: abundance fitness (aPCA) (normalised: wild type 0, dead -1); higher = more abundant; growth selection in yeast, the domain comes from the species named
Settings: Homo sapiens

Abundance fitness, by site and new letter:
F1: M -0.176; D -0.805; N -0.142; G -0.574; R -1.12; S -0.09; L -1.24; P -0.375; C -0.854; T -0.158; K -0.36
Y5: I -0.094; G -0.812
T3: E -0.059; F -0.613; A -0.303; C -0.536; M -0.395; D -0.291; S 0.001; Y -0.619; K 0.262; H -0.325; P -0.935; Q -0.164; N 0.167; G -0.132; W -0.786; L -0.759; V -0.544; I -0.475
L2: S -0.88; Q -0.595; C -0.571; P -0.532; Y -0.248; K -0.622; D -0.822; T -0.661; V -0.369; A -0.753; W 0.044; E -1.06; R -0.789; G -0.812; N -0.555; F 0.098; H -0.738
K4: G -1.07; S -0.749; P -0.904; V -0.815; T -0.877; L -1; Q -0.646; A -0.735; D -0.644; N -0.419; C -0.698; R -0.549

Variants of: B2
Test: as above
Settings: Homo sapiens

Abundance fitness: each site, then its substitutions
C48: E 0.259; Y -0.062; R -0.057; W 0.02; G -0.008; S 0.039; Q 0.279; N 0.277; F -0.5; V 0.124; M 0.18; D -0.144; T -0.197; I -0.475
R44: K -0.195; L -0.21; Y 0.062; M -0.075; I -0.152; C -0.076; A -0.017; H -0.199; V 0.034; T 0.018; D -0.179; S -0.094; N -0.195; F -0.117; W 0.037; E 0.027; P -0.421
D39: H -0.113; R -0.131; Q -0.152; F -0.635; Y -0.425; W -0.54; E -0.208; T -0.002; K -0.257; I -0.597; M -0.483; G -0.146; N -0.138; P 0.037; V -0.418; S -0.052; C -0.093
V42: G -0.056; Y -0.099; R -0.176; M 0.034; K 0.066; L 0.061; D -0.012; T 0.002; P 0.019; W -0.151; Q -0.124; E 0.004; S 0.029; I -0.117; N -0.064
F47: A -0.744; E -0.89; K -0.722; D -0.762; S -0.81; Q -0.807; I -0.782; M -0.686; R -0.949; H -0.913; T -0.763; Y -0.162; N -1.08; C -0.843; W -0.168; L -0.782; G -0.853; P -0.775
V43: G -0.943; S -0.958; F -0.665; E -0.762; A -0.614; D -0.764; W -0.979; H -1.04; Y -0.908; L -0.201; I -0.218; P -0.938; M -0.931; T -0.579; K -1.17; Q -1.04; R -0.935; C -0.24
Y38: T 0.072; W -0.071; S 0.034
K50: T -0.201; D -0.946; A -0.125; R 0.022; N -0.222
